Series [1] deals with T1, PmL-AAD.
T1 construct: recombinant in E. coli BL21(DE3), Tween 80 solubilised, HisTrap purified
As to the kind of experiment: initial rates by HPLC, Michaelis-Menten fit. The series is classed as biochemical, Proteus mirabilis. To be noted: 50 mM Tris-HCl pH 8.0, 30 °C; substrate 1-20 mM. The source says:
initial rates by HPLC, Michaelis-Menten fit on PmL-AAD

Substrate in series [2]: O=C(O)C(=O)c1ccc(O)cc1
As to the kind of experiment: initial rates of reductive amination, HPLC, Michaelis-Menten fit. The note with it: 0.5 mM NADPH, 10 mM NH4Cl, 50 mM Tris-HCl pH 8.0, 30 °C, HPGA 1-20 mM. The format is biochemical, Corynebacterium glutamicum. The source says: initial rates of reductive amination, HPLC, Michaelis-Menten fit on CgDAPDH^BC621

Substrate in series [3]: O=C(O)[C@@H](O)c1ccc(O)cc1
As to the kind of experiment: initial rates by HPLC, Michaelis-Menten fit. The note with it: 0.5 mM NADP+, 50 mM Tris-HCl pH 8.0, 30 °C, substrate 1-20 mM. The series is classed as biochemical, Pseudomonas aeruginosa. The source says: initial rates by HPLC, Michaelis-Menten fit on PaMDH

Km, kcat and kcat/Km data for seven molecules are collected here from paper PMC10991500, “A multi-enzyme cascade for efficient production of D-p-hydroxyphenylglycine from L-tyrosine” (Bioresources and Bioprocessing, 2021).

As usually defined, the Km is the substrate concentration at which the rate is half of its maximum. The kcat is the maximal rate divided by the concentration of active sites. For orientation: kcat/Km means the second-order rate constant that governs catalysis at low substrate concentration.

Substitutions are numbered along the chain they refer to. Names and notes keep the numbering of the source.

Take `N[C@@H](Cc1ccc(O)cc1)C(=O)O` [L-tyrosine]: in series [1], the Km was found to be 2.94 ± 1.04 mM.

B1: CgDAPDH^BC621 (Corynebacterium glutamicum ATCC 13032; D154G/H244N/Q150L/R195M/T169I) (protein)
chain: MTNIRVAIVGYGNLGRSVEKLIAKQPDMDLVGIFSRRATLDTKTPVFDVADVDKHADDVDVLFLCMGSATDIPEQAPKFAQFACTVDTYDNHRDIPRHRQVMNEAATAAGNVALVSTGWDPGMFSINRVYAAAVLAEHQQHTFWGPGLSLGHSGALRRIPGVQKAVQYILPSEDALEKARRGEAGDLTGKQTHKMQCFVVADAADHERIENDIRTMPDYFVGYEVEVNFIDEATFDSEHTGMPNGGHVITTGDTGGFNHTVEYILKLDRNPDFTASSQIAFGRAAHRMKQQGQSGAFTVLEVAPYLLSPENLDDLIARDV
notes: five-fold mutant BC621 in pET28a, recombinant in E. coli BL21(DE3), HisTrap purified
In the case of B1, in series [2], the Km stood at 20.37 ± 0.19 mM, the kcat worked out at 0.00317 ± 0.00617 s⁻¹ and the kcat/Km is 0.15 M⁻¹ s⁻¹.

B2: CgDAPDH^BC621 (Corynebacterium glutamicum ATCC 13032; D120S/D154G/H244N/Q150L/R195M/T169P) (protein)
chain: B1 chain with D120S, I169P
notes: as for B1
As for B2, in series [2], the Km came to 7.83 ± 0.03 mM, the kcat worked out at 0.0243 ± 0.0117 s⁻¹ and the kcat/Km worked out at 3.17 M⁻¹ s⁻¹.

B3: CgDAPDH^BC621 (Corynebacterium glutamicum ATCC 13032; D154G/H244N/Q150L/R195M/T169P) (protein)
chain: B1 chain with I169P
notes: as for B1
For the molecule B3, in series [2], the Km is reported as 8.17 ± 0.89 mM, the kcat is 0.0247 ± 0.00417 s⁻¹ and the kcat/Km was found to be 3 M⁻¹ s⁻¹.

B4: CgDAPDH^BC621 (Corynebacterium glutamicum ATCC 13032; D120S/D154G/H244N/Q150L/R195M/T169P/W144S) (protein)
chain: B1 chain with D120S, W144S, I169P
notes: as for B1
B4: in series [2], the Km is on record as 2.48 ± 0.28 mM, the kcat came to 0.0448 ± 0.005 s⁻¹ and the kcat/Km came to 18 M⁻¹ s⁻¹.

B5: CgDAPDH^BC621 (Corynebacterium glutamicum ATCC 13032; D154G/H244N/Q150L/R195M/T169P/W144S) (protein)
chain: B1 chain with W144S, I169P
notes: as for B1
As for B5, in series [2], the Km worked out at 8.07 ± 0.68 mM, the kcat is 0.0225 ± 0.0232 s⁻¹ and the kcat/Km worked out at 2.83 M⁻¹ s⁻¹.

B6: PaMDH (Pseudomonas aeruginosa) (protein)
chain: MSQNLFNVEDYRKLAQKRLPKMVYDYLEGGAEDEYGVKHNRDVFQQWRFKPKRLVDVSRRSLQAEVLGKRQSMPLLIGPTGLNGALWPKGDLALAQAATKAGIPFVLSTASNMSIEDLARQCDGDLWFQLYVIHREIAQGMVLKALHSGYTTLVLTTDVAVNGYRERDLHNRFKMPMSYTPKVMLDGCLHPRWSLDLVRHGMPQLANFVSSQTSSLEMQAALMSRQMDASFNWEALRWLRDLWPHKLLVKGLLSAEDADHCIAEGADGVILSNHGGRQLDCAVSPMEVLAQSVAKTGKPVLIDSGFRRGSDIVKALALGAEAVLLGRATLYGLAARGETGVDEVLTLLKADIDRTLAQIGCPDITSLSPDYLQSEGVTSTAPVDHLIGKGTHA
notes: recombinant in E. coli BL21(DE3), HisTrap purified
Regarding B6, in series [3], the Km is on record as 0.89 ± 0.91 mM, the kcat came to 0.123 ± 0.0122 s⁻¹ and the kcat/Km is 179 ± 3.67 M⁻¹ s⁻¹.
